Experimental data from article PMC5686067, “Structural basis of adaptor-mediated protein degradation by the tail-specific PDZ-protease Prc” (Nature Communications, 2017).

B1: sNlpI (soluble NlpI without its lipoprotein signal peptide) (natural protein, E. coli, UniProt P0AFB1 20-294, looked up)
chain: SNTSWRKSEVLAVPLQPTLQQEVILARMEQILASRALTDDERAQLLYERGVLYDSLGLRALARNDFSQALAIRPDMPEVFNYLGIYLTQAGNFDAAYEAFDSVLELDPTYNYAHLNRGIALYYGGRDKLAQDDLLAFYQDDPNDPFRSLWLYLAEQKLDEKQAKEVLKQHFEKSDKEQWGWNIVEFYLGNISEQTLMERLKADATDNTSLAEHLSETNFYLGKYYLSLGDLDSATALFKLAVANNVHNFVEHRYALLELSLLGQDQDDLAESDQQ
notes: NlpI, E. coli outer-membrane lipoprotein with four tetratricopeptide repeats, residues S20-Q294, without the lipoprotein signal peptide; Homodimer by AUC and in the crystal. pET28a vector with N-terminal His-tag; no removal of the tag is described; also called WT-NlpI; wild-type sNlpI; source: E. coli BL21(DE3), purified (Ni-NTA, MonoQ, Superdex 200); cleared cell lysate in the pull-down; not …
B2: sNlpI-R82E (natural protein, E. coli, UniProt P0AFB1 20-294, looked up)
chain: SNTSWRKSEVLAVPLQPTLQQEVILARMEQILASRALTDDERAQLLYERGVLYDSLGLRALAENDFSQALAIRPDMPEVFNYLGIYLTQAGNFDAAYEAFDSVLELDPTYNYAHLNRGIALYYGGRDKLAQDDLLAFYQDDPNDPFRSLWLYLAEQKLDEKQAKEVLKQHFEKSDKEQWGWNIVEFYLGNISEQTLMERLKADATDNTSLAEHLSETNFYLGKYYLSLGDLDSATALFKLAVANNVHNFVEHRYALLELSLLGQDQDDLAESDQQ
notes: NlpI, E. coli, residues S20-Q294 without the signal peptide, R82E in helix TPR1b; source: E. coli BL21(DE3), purified (Ni-NTA, MonoQ, Superdex 200)
B3: sNlpI-L38A (natural protein, E. coli, UniProt P0AFB1 20-294, looked up)
chain: SNTSWRKSEVLAVPLQPTAQQEVILARMEQILASRALTDDERAQLLYERGVLYDSLGLRALARNDFSQALAIRPDMPEVFNYLGIYLTQAGNFDAAYEAFDSVLELDPTYNYAHLNRGIALYYGGRDKLAQDDLLAFYQDDPNDPFRSLWLYLAEQKLDEKQAKEVLKQHFEKSDKEQWGWNIVEFYLGNISEQTLMERLKADATDNTSLAEHLSETNFYLGKYYLSLGDLDSATALFKLAVANNVHNFVEHRYALLELSLLGQDQDDLAESDQQ
notes: NlpI, E. coli, residues S20-Q294 without the signal peptide, L38A in helix h1; source: E. coli BL21(DE3), purified (Ni-NTA, MonoQ, Superdex 200)
B4: sNlpI-L38C (natural protein, E. coli, UniProt P0AFB1 20-294, looked up)
chain: SNTSWRKSEVLAVPLQPTCQQEVILARMEQILASRALTDDERAQLLYERGVLYDSLGLRALARNDFSQALAIRPDMPEVFNYLGIYLTQAGNFDAAYEAFDSVLELDPTYNYAHLNRGIALYYGGRDKLAQDDLLAFYQDDPNDPFRSLWLYLAEQKLDEKQAKEVLKQHFEKSDKEQWGWNIVEFYLGNISEQTLMERLKADATDNTSLAEHLSETNFYLGKYYLSLGDLDSATALFKLAVANNVHNFVEHRYALLELSLLGQDQDDLAESDQQ
notes: NlpI, E. coli, residues S20-Q294 without the signal peptide, L38C in helix h1; source: E. coli BL21(DE3), purified (Ni-NTA, MonoQ, Superdex 200)

Biological target: the molecule itself
Experiment: AUC; sedimentation velocity, absorbance optics, 20 mM Tris-HCl pH 8.0, 100 mM NaCl, 2 mM DTT, 20 °C, c(s) model in Sedfit

| Protein | stoichiometry N |
| --- | --- |
| B1 | 2 |
| B2 | 2 |
| B3 | 2 |
| B4 | 2 |
